In assay [1] the target is T1, Programmed Death 1 (PD-1) Fc chimera (R&D Systems, Catalog # 1086-PD-050) (human, UniProt Q15116 25-167).
T1 construct: Bought reagent; not shown: Fc part of the bought chimera (captured by anti-human Fc tips)
Nature of the assay: BLI (Octet Red), TPP-985 loaded on anti-human IgG Fc tips, DLAT 10 µg/mL bound first, then PD-1 Fc. On the procedure: (§1) Antibodies and antibody fusions were diluted to 16 μg/mL in PBS and loaded onto anti-human IgG Fc tips (ForteBio, Catalog # 18-5064). Human DLAT recombinant protein (ProSpec, Catalog # ENZ-082) was diluted into PBS to 10 μg/mL. […] Finally, a dissociation step in PBS was performed to determine dissociation from the bound antibodies.
(In general: BLI is a label-free optical method that tracks binding on a fibre tip over time.)

Assay [2] deals with T1, Programmed Death 1 (PD-1) Fc chimera …. Nature of the assay: BLI (Octet Red), TPP-990 loaded on anti-human IgG Fc tips, DLAT 10 µg/mL bound first, then PD-1 Fc. The method, then:
as §1

Assay [3] has the same target. Nature of the assay: BLI (Octet), PD-1 Fc captured on anti-human Fc tips, TPP-999 at 10 µg/mL in PBS as analyte. The method, then:
(§2) Final dissociation in PBS was performed in the last step on the Bio-Layer Interferometry (BLI) data.

The target is the same in assay [4]. Nature of the assay: BLI (Octet), PD-1 Fc captured on anti-human Fc tips, TPP-1001 at 10 µg/mL in PBS as analyte. On the procedure:
as §2

Assay [5] has the same target. Nature of the assay: BLI (Octet), PD-1 Fc captured on anti-human Fc tips, TPP-993 in PBS as analyte. The method, then:
as §2

The target is the same in assay [6]. Nature of the assay: BLI, PD-1 Fc loaded on anti-human IgG tips, fusion as analyte, dissociation in PBS.

T1 sequence (Q15116 25-167, change not shown): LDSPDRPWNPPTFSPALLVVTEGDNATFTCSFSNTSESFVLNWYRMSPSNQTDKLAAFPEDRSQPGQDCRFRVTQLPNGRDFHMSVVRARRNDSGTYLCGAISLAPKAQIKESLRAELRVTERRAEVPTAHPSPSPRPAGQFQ

B1: TPP-985, human IgG2/4 PD5 antibody (antibody)
heavy: QLQLQESGPGLVKPSETLSLTCIVSGGSISRNSYYWGWIRQPPGKGLEWIGSIVYSGSTYHQPSLKSRVTIFLDTSKNQFFLKLTSVTAADTAVYYCARGTRATTWPPPIGYWGQGTLVTVSSASTKGPSVFPLAPCSRSTSESTAALGCLVKDYFPEPVTVSWNSGALTSGVHTFPAVLQSSGLYSLSSVVTVPSSNFGTQTYTCNVDHKPSNTKVDKTVERKCCVECPPCPAPPVAGPSVFLFPPKPKDTLMISRTPEVTCVVVDVSQEDPEVQFNWYVDGVEVHNAKTKPREEQFNSTYRVVSVLTVLHQDWLNGKEYKCKVSNKGLPSSIEKTISKAKGQPREPQVYTLPPSQEEMTKNQVSLTCLVKGFYPSDIAVEWESNGQPENNYKTTPPVLDSDGSFFLYSRLTVDKSRWQEGNVFSCSVMHEALHNHYTQKSLSLSLGK
light: QSVLTQPPSVSAAPGQKVTVSCFGSSSNIGNYFASWYQQLPGAAPRLLIYGNNERPSGIPDRFSGSKSGTSATLVITGLQTGDEAAYYCATWDSSLSAVVFGGGTKLTVLGQPKANPTVTLFPPSSEELQANKATLVCLISDFYPGAVTVAWKADGSPVKAGVETTKPSKQSNNKYAASSYLSLTPEQWKSHRSYSCQVTHEGSTVEKTVAPTECS
notes: also called PD5_IgG2-4; anti-DLAT IgG2-4 antibody with no PD-L1 variable-like domain
B1: the binding result in assay [1] was “no binding (tested: 12.5 µg/mL)”.

B2: TPP-990, human IgG2/4 PD5 antibody, C-terminus PD-L1 LC (antibody)
heavy: B1 heavy
light: QSVLTQPPSVSAAPGQKVTVSCFGSSSNIGNYFASWYQQLPGAAPRLLIYGNNERPSGIPDRFSGSKSGTSATLVITGLQTGDEAAYYCATWDSSLSAVVFGGGTKLTVLGQPKANPTVTLFPPSSEELQANKATLVCLISDFYPGAVTVAWKADGSPVKAGVETTKPSKQSNNKYAASSYLSLTPEQWKSHRSYSCQVTHEGSTVEKTVAPTECSGGSSRSSSSGGGGSGGGGFTVTVPKDLYVVEYGSNMTIECKFPVEKQLDLAALIVYWEMEDKNIIQFVHGEEDLKVQHSSYRQRARLLKDQLSLGNAALQITDVKLQDAGVYRCMISYGGADYKRITVKVNA
notes: Antibody fused with the human PD-L1 variable-like domain
As to B2, the binding result in assay [2] is “no binding (tested: 12.5 µg/mL)”.

B3: TPP-999 (PD2 with PD-L1 fused to the C-terminus of the light chain) (Fab)
heavy: EVQLVESGGGLVKPGGSLRLSCAASGFTFGSYSMTWVRQAPGKGLEWVSFISTVSTYIYYPDSVKGRFTISRDNAKNSLYLQMNSLRAEDTAVYYCARVSGRGSAARDGEKGTYYYYMDVWGKGTTVTVSSASTKGPSVFPLAPSSKSTSGGTAALGCLVKDYFPEPVTVSWNSGALTSGVHTFPAVLQSSGLYSLSSVVTVPSSSLGTQTYICNVNHKPSNTKVDKRVEPKSC
light: SSELTQDPAVSVALGQTVTITCQGDSLRSYYASWYQQKPGQAPVLVIFGKNNRPSGIPDRFSGSRSGNTASLTITGAQAEDEADYFCDSRDSSANHWVFGGGTKLTVLQPKAAPSVTLFPPSSEELQANKATLVCLISDFYPGAVTVAWKADSSPVKAGVETTTPSKQSNNKYAASSYLSLTPEQWKSHKSYSCQVTHEGSTVEKTVAPTECSGGSSRSSSSGGGGSGGGGFTVTVPKDLYVVEYGSNMTIECKFPVEKQLDLAALIVYWEMEDKNIIQFVHGEEDLKVQHSSYRQRARLLKDQLSLGNAALQITDVKLQDAGVYRCMISYGGADYKRITVKVNA
notes: Fab fusion with the human PD-L1 variable-like domain
Consider B3, for which the binding result in assay [3] is reported as “binds”.

B4: TPP-1001 (PD2 with PD-L1 fused to the N-terminus of the light chain) (Fab)
heavy: B3 heavy
light: FTVTVPKDLYVVEYGSNMTIECKFPVEKQLDLAALIVYWEMEDKNIIQFVHGEEDLKVQHSSYRQRARLLKDQLSLGNAALQITDVKLQDAGVYRCMISYGGADYKRITVKVNAGGSSRSSSSGGGGSGGGGSSELTQDPAVSVALGQTVTITCQGDSLRSYYASWYQQKPGQAPVLVIFGKNNRPSGIPDRFSGSRSGNTASLTITGAQAEDEADYFCDSRDSSANHWVFGGGTKLTVLQPKAAPSVTLFPPSSEELQANKATLVCLISDFYPGAVTVAWKADSSPVKAGVETTTPSKQSNNKYAASSYLSLTPEQWKSHKSYSCQVTHEGSTVEKTVAPTECS
notes: as for B3
For the molecule B4, the binding result in assay [4] is given as “binds”.

B5: TPP-993 (PD2 Fab having no PD-L1 domain and no linker) (Fab)
heavy: B3 heavy
light: SSELTQDPAVSVALGQTVTITCQGDSLRSYYASWYQQKPGQAPVLVIFGKNNRPSGIPDRFSGSRSGNTASLTITGAQAEDEADYFCDSRDSSANHWVFGGGTKLTVLQPKAAPSVTLFPPSSEELQANKATLVCLISDFYPGAVTVAWKADSSPVKAGVETTTPSKQSNNKYAASSYLSLTPEQWKSHKSYSCQVTHEGSTVEKTVAPTECS
On to B5, for which the binding result in assay [5] is on record as “no binding (tested: 10 µg/mL)”.

B6: TPP-1986 (murine IgG1 Fc Silent, N-terminus_PDL1_LC_PD5) (antibody)
heavy: QLQLQESGPGLVKPSETLSLTCIVSGGSISRNSYYWGWIRQPPGKGLEWIGSIVYSGSTYHQPSLKSRVTIFLDTSKNQFFLKLTSVTAADTAVYYCARGTRATTWPPPIGYWGQGTLVTVSSAKTTPPSVYPLAPGSAAQTNSMVTLGCLVKGYFPEPVTVTWNSGSLSSGVHTFPAVLQSDLYTLSSSVTVPSSTWPSQTVTCNVAHPASSTKVDKKIVPRDCGCKPCICTVPEQSSVFIFPPKPKDVLMISLTPKVTCVVVDISKDDPEVQFSWFVDDVEVHTAQTKPREEQINSTFRSVSELPILHQDWLNGKEFKCRVNSAAFPAPIEKTISKTKGRPKAPQVYTIPPPKEQMAKDKVSLTCMITNFFPEDITVEWQWNGQPAENYKNTQPIMDTDGSYFVYSKLNVQKSNWEAGNTFTCSVLHEGLHNHHTEKSLSHSPGK
light: FTVTVPKDLYVVEYGSNMTIECKFPVEKQLDLAALIVYWEMEDKNIIQFVHGEEDLKVQHSSYRQRARLLKDQLSLGNAALQITDVKLQDAGVYRCMISYGGADYKRITVKVNAGGSSRSSSSGGGGSGGGGQSVLTQPPSVSAAPGQKVTVSCFGSSSNIGNYFASWYQQLPGAAPRLLIYGNNERPSGIPDRFSGSKSGTSATLVITGLQTGDEAAYYCATWDSSLSAVVFGGGTKLTVLGQPKSSPSVTLFPPSSEELETNKATLVCTITDFYPGVVTVDWKVDGTPVTQGMETTQPSKQSNNKYMASSYLTLTARAWERHSSYSCQVTHEGHTVEKSLSRADCS
notes: also called huPDL1; Human PDL1_Mouse PD5
For B6, the binding result in assay [6] is recorded as “binds”.

For the origin of these results see US20240026032A1 (Alexion, published 2024).
